Reference: the RNAGym collection of RNA variant scans (doi:10.1073/pnas.2313332121)

B1: TPR t1 (parent)
chain: GACCAAUCUGCCCUCAGAGCUCGAGAACAUCUUCGGAUGCAGAGGAGGCAGGCUUCGGUGGCGCGAUAGCGCCAACGUCCUCAACCUCCAAUGCAUCCCACCACAUGAUGAUGCCUGAAGAGCCUUGGUUUUUUG

Variants of: B1
Assay: polymerase ribozyme fitness, log enrichment relative to wild type (log ratio); higher = more active; in vitro selection for triplet polymerase activity
Outline: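 Input and output libraries were sequenced on Illumina after a single in vitro selection round, run in triplicate on PCR-built, transcribed mutant libraries of each subunit of a heterodimeric triplet polymerase ribozyme. Selection annealed libraries to a biotinylated primer, the partner subunit and triplets, incubated them frozen at −7 °C, then gel-excised extended constructs for streptavidin-bead capture and RT-PCR. Genotypes with ≥10 input reads and ≥1 read per output were kept. Fitness is the logarithm, taken in base 2, of genotype enrichment divided by wild-type enrichment, using inverse-variance-weighted replicate averages.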

Point of comparison: A5C G39A G69A G120C, “polymerase ribozyme fitness (log ratio)” value -4.21. Against it:
- C11U C20U C22A A91U G113A — within 0.2 log units, -4.25
- A29U G47A C62U C82U G117C — lower, -5.79
- G47A A50G G113A — higher, -2.34
- U9A C104A — higher, -0.737
- U38G U133A — higher, -0.846
- C97U C101A G122C C123A U125A — higher, -1.66
- C3U C70U G113C — higher, -3.44
- U9A A105C G122A — higher, -1.54
- C8A G47C G48A G58A G60U — higher, -1.54
- U38G C56U A91U U125G U126G G127U — higher, -3.43
- G44A C64U G128C U132C — higher, -2.96
- U54G C72G U129A — higher, -2.34
- C13A A83G A121U C123U — higher, 0.492
- A2G G35U C124A — within 0.2 log units, -4.09
- G122A U126A — higher, -2.34
- U21C C22G G63A G77U C94A G110C U112C — lower, -7.86
- C70U C123U — higher, 0.707
- C11G C94U C104G G113A — lower, -5.51
- C85A C97A — lower, -7.29
- U112C C124U — higher, 1.58
- C12U G63C — higher, -0.399
- C53A C124G — higher, 0.737
- U87A C124A — higher, 1.83
- G61U U106C G135U — higher, -1.67
- G52U G63U A119G G120U A121U — higher, -0.023
- U14G A27G G113A A121G U133A — higher, -1.42
- G19A C73U C82U C114A — higher, -1.84
- A5C G48U C49A C94A — higher, -2.25
- U78A C79U U112A U131G — higher, 0.67
- C62U C86G — higher, -0.606
- A41U C56G G71U C79U G117C — lower, -6.29
- G63A U116C C123U — within 0.2 log units, -4.18
- A18U G57C G77U A105U U112C — within 0.2 log units, -4.24
- G35A G60U — higher, -3.33
- U59C G120C G128U U130A — higher, 1.03
- C11U G19U C20A C104U G120U — within 0.2 log units, -4.29
- A50C G71U U87A — higher, -1.95
- C4G A27U G36C C49G C79U C123G — lower, -5.37
- C20G U21A U112A — higher, -0.639
- C53A C98U U112G — higher, -3.36
- U38A C124A — higher, 1.2
- A2U C8A A74U A95U G110A G127U U130C — higher, -3.91
- G10A U21G G60A A103C C114A — lower, -5.69
- U7A C8G G45A — higher, 0.548
- C12G C49G — higher, -0.51
- C12A C49G U109C A111U — lower, -6.35
- G61C A121C — higher, -0.241
- G45C C70U — higher, -1.4
- A27G A103U U112A U130C — lower, -5.43
- G47A C94G C101U — higher, -2.16
- C34G C101U — lower, -6.46
- G48C A90G — higher, 0.432
- C12G G69C C82U C98U A119G — higher, -0.598
- C13U A18C A37C G39U G57A — lower, -6.61
- A24G G77U G113U G122U C124A — lower, -6.49
- A43U C76A G135U — higher, -3.89
- A24G G48A G93A C97U A111G — higher, -3.16
- A5U C64U C85G C86U U109A C124G U133G — lower, -6.39
- A2U C70U G128C — higher, -2.25
- C40U C73U C80U G117U — within 0.2 log units, -4.15
- C20U C73G G113U U130A U131C — higher, -3.02
- U7A G10U G93A — higher, -0.792
- G47A G71U C104A — higher, -2.85
- C22A C124A U134C — lower, -4.93
- A24G C70A G110A A111U — lower, -5.11
- C8A G42A C73U — higher, -1.21
- G61A U78A — higher, -0.223
- G10C G120C — higher, 1.04
- A91G C94U U109A U112A — lower, -6.42
- G10C A68G — lower, -4.75
- G44A U81G U87G A90G — within 0.2 log units, -4.02
- C73U A83U G110A G128U — lower, -4.9
- C20A G52U C62U U96G G120A — higher, -3.86
- C8A A50C U92C — higher, -1.6
- C3U C89U — higher, -0.863
- C22A G61A U129G — lower, -5.57
- C4A A6C C53A C82A G117C — lower, -7.24
- A2U G36C C53U — higher, -3.54
- A29C G61A C88G C114G — lower, -6.84
- G71A C94A — higher, -2.86
- G39C C62U G63A — higher, -3.77
- C34A A41U G60C C99U C104A U116C U125A — lower, -7.43
- U14A U54A U130G — within 0.2 log units, -4.16
